Patent US9696316B2, “Conformationally dynamic peptides” (SYSTEM OF SYSTEMS ANALYTICS, INC., priority 2009, dated 2017)
“Also recorded” adds a separate entry of the source.

Key:
Format in all cases: binding
Aβ42 Fiber = Aβ42 Fiber (Homo sapiens, UniProt P05067); test: In vitro centrifugation-based interaction assay (insoluble complexes); details: 40% TFE, 3 hours incubation, 17,000×g 30 minutes
Experimental: In this assay, soluble peptide probes are combined with insoluble target protein fibers in an in vitro centrifugation-based interaction assay. Peptide probe that binds to the target protein will be detected in an insoluble pellet, which may be isolated using centrifugation. […] Aβ42 Fiber (target protein) and peptide probe (SEQ ID NO:1) are incubated for 3 hours in the presence of increasing amounts of trifluoroethanol (TFE). The samples are centrifuged at 17,000×g for 30 minutes, and the pellets are denatured in sample buffer and analyzed by SDS-PAGE. Reference samples (Input) are shown for comparison.

[1] = target: biotinylated Aβ42 oligomers (Homo sapiens, UniProt P05067); test: In vitro affinity chromatography-based interaction assay (streptavidin beads); details: 4 μM probe
Sequence of biotinylated Aβ42 oligomers (P05067 672-713 limits assumed): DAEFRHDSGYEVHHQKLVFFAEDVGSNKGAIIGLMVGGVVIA
Experimental: In this assay, soluble peptide probes are combined with, for example, soluble target protein oligomers in an in vitro affinity chromatography-based interaction assay. For this example, target protein is labeled with an affinity molecule, such as biotin, and incubated with a labeled peptide probe. After incubation, the mixture is incubated with the capture moiety, such as streptavidin, on a support, for example a column or beads, such that the target protein is captured. After washing of unbound material, the support can be examined for detection of the labeled peptide probe, which would indicate the presence of bound target protein-peptide probe complexes on the support. Alternatively, the bound material may be eluted and then examined for detection of the labeled peptide probe. Again, detection of the labeled peptide probe would indicate the presence of target protein-peptide probe complexes in the eluant. FIGS. 5A and 15A illustrate an affinity chromatography assay using biotin-labeled target protein and streptavidin-coated beads. This type of assay is useful, for example, for assessing the efficacy of a given peptide probe. […] The beads are washed with PBS to remove unbound material and the captured material is analyzed by SDS-PAGE. […] […]

Aβ fibers = Aβ fibers (Homo sapiens, UniProt P05067); test: Aβ fiber assay in 40% TFE; details: di-pyrene labeled
Sequence of Aβ fibers (P05067 672-713 limits assumed): as above
Text: An Aβ fiber assay may be conducted in an organic solvent, such as 40% TFE. […] This conformation is associated with the monomer or self fluorescence of the pyrene moieties (370-410 nm; see FIG. 6). […] This conformation is associated with the excimer fluorescence of the pyrene moieties (430-530 nm; see FIG. 6).

[2] = system: fibrillar amyloid target protein; test: Signal gain on conformational change in the presence of fibrillar amyloid
Experimental: Peptide Probe 22 (SEQ ID NO:2, 2 μM) labeled at each terminus with pyrene is incubated in 0 to 80% TFE in tris buffer (10 mM Tris, pH 7.0) for 30 min. The reaction is measured by TECAN fluorimeter, and the excimer:monomer fluorescence ratio is recorded. […] When tested for the ability to undergo conformational change in the presence of a fibrillar amyloid target protein, Peptide 22 performs 2.6 times greater than the reference peptide (SEQ ID NO:1).

Aβ42 oligomer [3] = target: T1, Aβ42 oligomer (Homo sapiens, UniProt P05067); test: CD analysis of peptide probe with target protein; details: 10 mM sodium phosphate pH 7.0, 3 hours
T1 sequence (P05067 672-713 limits assumed): as above
Text: The conformation of the peptide probe bound to the target protein can be assessed by CD analysis. […] The peptide alone is highly alpha helical (36%). Upon mixing of Peptide 38 with the target protein, the peptide undergoes a conformation shift that results in increased β-sheet conformation, and decreased α helix conformation. That is, the secondary structure of Peptide 38 is altered such that the proportion of a helix is halved (18%), while the proportion of β-sheet structure is enhanced from 20% to 31%. […] Circular dichroism (CD) analysis is used to determine the secondary structure of Peptide 22, synthetic Aβ42 oligomer, and a mixture thereof. Samples are incubated in 10 mM sodium phosphate (pH 7.0) for 3 hours at room temperature before measuring CD. For each sample, the relative ellipticity is evaluated from 190-260 nm. […] Each data set represents the average of three separate spectral scans.

Aβ42 oligomer [4] = target: T1, Aβ42 oligomer; test: Aqueous Aβ oligomer assay, pyrene fluorescence
Text: The conformation of peptide probe bound to the target protein can also be detected by measuring pyrene fluorescence, on the peptide alone and in combination with the target protein. […] The excimer fluorescence associated with the β-sheet conformation has a different wavelength than the monomer fluorescence associated with the alpha-helix conformation, and the excimer:monomer fluorescence ratio is 9:1. […] The addition of Aβ42 oligomer target protein results in a dose-dependent shift of the excimer:monomer fluorescence ratio to 20:1 at the highest Aβ42 oligomer concentration (0.3 μM). This change in excimer:monomer fluorescence ratio reflects a corresponding conformational change in the peptide, that results in increased β-sheet conformation, and decreased α helix conformation.
An Aβ oligomer assay may be conducted in an aqueous solvent, such as water. […] Upon introduction of Aβ oligomer, the fluorescence profile shifts to primarily self-fluorescence (monomeric) (see FIG. 11), which is associated with reduced β-sheet structure, or increased alpha helix structure.
As discussed above, Peptide 22 (SEQ ID NO: 2) undergoes a conformational change upon interaction with Aβ oligomer. FIG. 11 illustrates the fluorescence spectra for Peptide 22 labeled at each terminus with pyrene and incubated in aqueous conditions for several hours at room temperature in 10 mM Hepes (pH 7.0). […] (solid line=Time 0; dashed line=3 hours; dotted line=18 hours).
(§1) Peptide 22 (100 nM) is incubated in water for 15 hours at room temperature with equimolar concentrations ([…]) of several potential Aβ substrates: Aβ42 oligomer (type 1); Aβ42 oligomer (type 2); Aβ1-42 monomer; Aβ1-40 monomer; Aβ1-42 fiber; Aβ1-40 fiber; bovine serum albumin (control substrate); and carbonic anhydrase (control substrate).
With reference to FIG. 13A, Peptide 22 (70 nM) is incubated with […] synthetic Aβ42 oligomer at 25 C, and fluorescence emission spectra is recorded after 3 hours incubation. […] (solid line—no Aβ42 oligomer; dashed/dot line—30 nN Aβ42 oligomer; large dashed line—100 nN Aβ42 oligomer; small dashed line—300 nN Aβ42 oligomer)

Aβ1-40 fiber = target: T2, Aβ1-40 fiber (Homo sapiens, UniProt P05067); test: Specificity assay, pyrene fluorescence; details: 100 nM peptide, water, 15 hours, 0-300 nN substrate
T2 construct: Aβ1-42 monomer; Aβ1-40 monomer; Aβ1-42 fiber; Aβ1-40 fiber
T2 sequence (P05067 672-711 limits assumed): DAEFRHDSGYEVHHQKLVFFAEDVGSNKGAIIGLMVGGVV
Experimental: as §1

Aβ1-40 monomer = target: T3, Aβ1-40 monomer (Homo sapiens, UniProt P05067); test: Specificity assay, pyrene fluorescence; details: 100 nM peptide, water, 15 hours, 0-300 nN substrate
T3 construct: Aβ1-42 monomer; Aβ1-40 monomer; Aβ1-42 fiber; Aβ1-40 fiber
T3 sequence (P05067 672-711 limits assumed): as above
Experimental: as §1

Aβ1-42 fiber = target: T4, Aβ1-42 fiber (Homo sapiens, UniProt P05067); test: Specificity assay, pyrene fluorescence; details: 100 nM peptide, water, 15 hours, 0-300 nN substrate
T4 construct: Aβ1-42 monomer; Aβ1-40 monomer; Aβ1-42 fiber; Aβ1-40 fiber
T4 sequence (P05067 672-713 limits assumed): as the sequence (P05067 672-713 limits assumed) above
Experimental: as §1

Aβ1-42 monomer = target: T5, Aβ1-42 monomer (Homo sapiens, UniProt P05067); test: Specificity assay, pyrene fluorescence; details: 100 nM peptide, water, 15 hours, 0-300 nN substrate
T5 construct: Aβ1-42 monomer; Aβ1-40 monomer; Aβ1-42 fiber; Aβ1-40 fiber
T5 sequence (P05067 672-713 limits assumed): as above
Experimental: as §1

bovine serum albumin = bovine serum albumin (Bos taurus, UniProt P02769); test: Specificity assay, pyrene fluorescence (control substrate); details: 100 nM peptide, water, 15 hours, 0-300 nN substrate
Sequence of bovine serum albumin (P02769 25-607): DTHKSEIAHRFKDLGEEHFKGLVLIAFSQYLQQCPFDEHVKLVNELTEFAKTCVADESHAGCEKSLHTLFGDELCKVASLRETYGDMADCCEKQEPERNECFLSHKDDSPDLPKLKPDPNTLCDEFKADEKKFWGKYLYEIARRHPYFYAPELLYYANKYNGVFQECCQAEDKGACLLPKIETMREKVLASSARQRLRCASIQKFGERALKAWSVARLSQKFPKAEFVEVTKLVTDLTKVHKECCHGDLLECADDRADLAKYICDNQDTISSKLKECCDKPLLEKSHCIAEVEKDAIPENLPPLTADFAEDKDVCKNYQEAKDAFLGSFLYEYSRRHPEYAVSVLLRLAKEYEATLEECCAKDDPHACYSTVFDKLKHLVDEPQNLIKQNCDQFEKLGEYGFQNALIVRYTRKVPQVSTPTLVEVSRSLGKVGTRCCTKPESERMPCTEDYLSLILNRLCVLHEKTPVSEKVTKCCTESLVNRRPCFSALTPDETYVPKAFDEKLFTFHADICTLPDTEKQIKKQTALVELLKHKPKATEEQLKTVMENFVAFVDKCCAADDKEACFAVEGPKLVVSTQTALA
Experimental: as §1

carbonic anhydrase = test: as above; details: 100 nM peptide, water, 15 hours, 0-300 nN substrate
Experimental: as §1

Sequence of Aβ42 Fiber (P05067 672-713 limits assumed): as the sequence (P05067 672-713 limits assumed) above

Substance | binding of peptide probe to Aβ42 fiber (peptide band in pellet, SDS-PAGE) (Aβ42 Fiber) | capture of labeled peptide probe with biotinylated Aβ42 oligomer on streptavidin beads (SDS-PAGE) [1] | conformation in the absence of Aβ fibers (CD, data not shown) (Aβ fibers) | conformation upon introduction of an Aβ fiber substrate (pyrene excimer fluorescence) (Aβ fibers) | maximal signal gain in the presence of fibrillar amyloid target protein relative to the reference peptide (SEQ ID NO:1) [2] | β sheet secondary structure (CD) (Aβ42 oligomer [3]; 4 μM peptide alone, room temperature) [%] | β sheet secondary structure (CD) (Aβ42 oligomer [3]; 4 μM peptide incubated with 33 nM synthetic Aβ42 oligomer) [%] | pyrene monomer (self) fluorescence (370-420 nm) versus Aβ42 oligomer concentration (Aβ42 oligomer [4]; 70 nM peptide, 0, 30, 100, 300 nM synthetic Aβ42 oligomer, 25 C, 3 hours (FIG. 13A)) | fluorescence over time in the absence of oligomer (Aβ42 oligomer [4]; 10 mM Hepes pH 7.0, room temperature, 0, 3, 18 hours (FIG. 11)) | reactivity with Aβ42 oligomers (transition from pyrene excimer fluorescence to pyrene self-fluorescence) (Aβ42 oligomer [4]; aqueous assay) | preferential binding by state of self-aggregation of Aβ protein (Aβ42 oligomer [4]; versus monomers, fibers and control proteins) | fluorescence response to Aβ40 fibers (Aβ1-40 fiber) | fluorescence response to Aβ40 monomer (Aβ1-40 monomer) | fluorescence response to Aβ42 fibers (Aβ1-42 fiber) | fluorescence response to Aβ42 monomer (Aβ1-42 monomer) | fluorescence response to BSA control (bovine serum albumin) | fluorescence response to Anhydrase control (carbonic anhydrase)
KLVFFAEDVGSNKGAIIGLMK (KLVFFAEDVGSNKGAIIGLMK) [SEQ ID NO:1, Aβ protein residues 16-35, with added C-Terminal Lys] | binding of target protein and peptide probe is clearly observed | labeled peptide probe is only detected in the captured material, in the presence of high molecular weight oligomers | primarily alpha helical | adopts a β-sheet conformation | – | – | – | – | – | – | – | – | – | – | – | – | –
KLVFFAEDVGSNKHAIIELMK (KLVFFAEDVGSNKHAIIELMK) [Peptide 22, Salt bridge at G29H and G33E] | – | directly binds to biotinylated Aβ42 oligomer | – | – | about 2.6 times | 36 | 43 | increases with Aβ42 oligomer concentration in a dose-dependent manner | stable over time | react with Aβ42 oligomers | preferentially binds to Aβ protein in the form of soluble Aβ oligomers | no change in fluorescence; also recorded: slight fluorescence response | no change in fluorescence | some dose-dependent increase in monomer fluorescence | no change in fluorescence; also recorded: slight fluorescence response | no change in fluorescence | no change in fluorescence
